Test results: article PMC6591005

Target: GII.4.2002 P domain (human norovirus GII.4 2002 (Farmington Hills))
Assay: crystal structure

Substance: GII.4.2002 P domain (domain or fragment)
- stoichiometry N: 2
